Five substances from patent publication US20060241289A1 can be followed below.

Assay [1] addresses TSH receptor coated onto plastic tubes (UniProt P16473). Put plainly: TSHR coated tubes; 90/672 at 1 U/L; competitor 125I-TSH.
The target is the same in assay [2]. Put plainly: TSHR coated tubes; 90/672 at 2 U/L; competitor 125I-TSH.
For assay [3] the target is unchanged. Put plainly: TSHR coated tubes; 90/672 at 8 U/L; competitor 125I-TSH.
Assay [4] shares this target. Put plainly: TSHR coated tubes; 90/672 at 1 U/L; competitor 125I-9D33.
The target is the same in assay [5]. Put plainly: TSHR coated tubes; 90/672 at 2 U/L; competitor 125I-9D33.
Assay [6] shares this target. Put plainly: TSHR coated tubes; 90/672 at 40 U/L; competitor 125I-TSH.
For assay [7] the target is unchanged. Briefly: TSHR coated tubes; 90/672 at 8 U/L; competitor 125I-9D33.
Assay [8] shares this target. Put plainly: TSHR coated tubes; 90/672 at 40 U/L; competitor 125I-9D33.
The target in assay [9] is hTSH receptor expressed on CHO cells (human) (UniProt P16473). Briefly: cell-based or functional assay.
Assay [10] concerns the target TSH receptor coated onto plastic tubes or ELISA plate wells (RSR Ltd) / detergent solubilised TSH receptor. Put plainly: 125I-TSH on TSHR coated tubes, sample diluted in serum.
For assay [11] the target is unchanged. Put plainly: Scatchard analysis, 125I-Fab on TSH receptor coated tubes.
Assay [12] shares this target. Put plainly: 125I-TSH on TSHR coated tubes, sample diluted in assay buffer.
For assay [13] the target is unchanged. Put plainly: inhibition of 125I-TSH binding, mean of serum and assay buffer.
The target is the same in assay [14]. Briefly: 125I-TSH on TSHR coated tubes, buffer only.
The target is the same in assay [15]. Put plainly: 125I-TSH on TSHR coated tubes, buffer only. The source holds these as a separate data set.
Assay [16] has the same target. Put plainly: 125I-TSH on TSHR coated tubes, assay buffer only.
The target of assay [17] is TSH receptor coated onto plastic tubes (UniProt P16473). Put plainly: 125I-TSH binding to TSHR coated tubes, assay buffer only.
Assay [18] has the same target. The description is as above. The source holds these as a separate data set.
Assay [19] deals with TSH receptor coated onto plastic tubes or ELISA plate wells (RSR Ltd) / detergent solubilised TSH receptor. Put plainly: 125I-TSH on TSHR coated tubes, healthy blood donor serum pool only.
For assay [20] the target is unchanged. The description is as above. The source holds these as a separate data set.

Read-outs that look alike come from different tables or passages of the source.

For the substance “NIBSC 90/672 (International Standard for thyroid stimulating antibody)”, the inhibition of 125I-TSH binding (%) in assay [1] came to 12%; in assay [2], 23%; in [3] it was 68%; in assay [6], 92%. Besides, the 125I-9D33 bound (% total counts added) in [4] came out at 13%; in [5], 11%; in [7] it was 7.1%; in [8], 4.1%. Also, the inhibition of 125I-9D33 binding (%) turned out to be 10% in assay [4], 28% in [5], 52% in [7] and 72% in [8].
Take NIBSC 90/672: in [9], the Mean cyclic AMP per well; NIBSC 90/672 0.1 units/L (pmols per well) amounted to 1.09, the Mean cyclic AMP per well; NIBSC 90/672 0.3 units/L (pmols per well) worked out at 1.49, the Mean cyclic AMP per well; NIBSC 90/672 1.0 units/L (pmols per well) is 3.52 and the Mean cyclic AMP per well; NIBSC 90/672 3.0 units/L (pmols per well) stood at 8.16.
On to “human TSH (from UniProt P01215 25-116; P01222 21-132) (ligand)”, for which the stimulation of cyclic AMP production in CHO cells transfected with the TSH receptor in assay [9] was found to be 10 ng/mL.
For orientation: % inhibition means the share of the control response that was lost under treatment. Take hMAb TSHR1 Fab: the % inhibition in [10] is 36%. Also, the mean units/mg (NIBSC 90/672) in assay [10] turned out to be 288 units/mg; in [12], 309 units/mg. This substance came in with a Ka in [11] of 4.5e+10 M⁻¹. In addition, the units/mg (NIBSC 90/672) worked out at 265 units/mg in [12] (Fab at 3 ng/mL), 291 units/mg in [12] (Fab at 10 ng/mL) and 372 units/mg in [12] (Fab at 30 ng/mL). This substance showed a Units/mg (NIBSC 90/672), inhibition of TSH binding assay in assay [13] of 300 Units/mg. In [13], this substance registered a Units/nmole (NIBSC 90/672), inhibition of TSH binding assay of 15 Units/nmole.
Take 125I-labelled TSH (ligand): the % of total cpm bound in assay [14] is 14.7%; in assay [15] it was 16.3%; in assay [19] it was 14.9%; in assay [20], 14.7%. The % binding in assay [16] is 12.1%. This substance also displayed a % inhibition in assay [16] of 0%. The % 125I-TSH binding stood at 11.5% in [17] and 11.1% in assay [18].
